The text below walks through data of article PMC7005868.

The target in the assay is CD63-GLucC (CD63 truncated at Val206 fused to the C-terminal fragment of Gaussia luciferase) (UniProt P08962). Kind of assay: split reporter (BiFC, NanoBiT); Gaussia luciferase protein complementation assay (PCA); GLucN and GLucC fusion plasmids co-transfected 1:1 into HEK293FT; membranes disrupted by two freeze-thaw cycles; luminescence with 10 uM coelenterazine.
Chain of UniProt P08962 (P08962 1-206): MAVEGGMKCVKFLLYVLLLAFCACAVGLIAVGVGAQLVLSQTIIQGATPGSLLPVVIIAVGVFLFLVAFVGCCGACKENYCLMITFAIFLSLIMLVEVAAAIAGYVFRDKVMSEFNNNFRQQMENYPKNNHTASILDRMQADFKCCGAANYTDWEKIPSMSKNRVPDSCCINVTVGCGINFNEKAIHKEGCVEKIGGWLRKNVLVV

In turn, “GLucN-T1ΔC (TIMP-1 truncated after L168) (domain or fragment)” yielded a loss of the ability to bind CD63 against full-length TIMP-1 of 83%.
